# Substitutions are numbered along the chain they refer to.
# T1: cynomolgus monkey IL-4 (cynomolgus monkey, UniProt P79339 25-153)
# T1 construct: mature; also called cy IL-4; cyno IL-4
# T1 sequence (looked up): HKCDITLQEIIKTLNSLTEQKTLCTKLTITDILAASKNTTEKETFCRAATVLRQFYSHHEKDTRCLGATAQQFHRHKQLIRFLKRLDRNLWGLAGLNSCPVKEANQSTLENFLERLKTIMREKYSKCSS
# T2: human IL-4 (human, UniProt P05112 25-153)
# T2 sequence (looked up): T1 sequence (looked up) with K26E, I29V, L33F
# T3: human IL-12 (human, UniProt P29459 23-219; P29460 23-328)
# T3 sequence (looked up) 1: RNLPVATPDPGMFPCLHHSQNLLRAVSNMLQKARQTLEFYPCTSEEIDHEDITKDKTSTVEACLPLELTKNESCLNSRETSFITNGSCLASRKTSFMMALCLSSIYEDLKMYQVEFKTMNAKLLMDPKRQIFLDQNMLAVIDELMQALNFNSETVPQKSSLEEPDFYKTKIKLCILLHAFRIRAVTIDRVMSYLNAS
# T3 sequence (looked up) 2: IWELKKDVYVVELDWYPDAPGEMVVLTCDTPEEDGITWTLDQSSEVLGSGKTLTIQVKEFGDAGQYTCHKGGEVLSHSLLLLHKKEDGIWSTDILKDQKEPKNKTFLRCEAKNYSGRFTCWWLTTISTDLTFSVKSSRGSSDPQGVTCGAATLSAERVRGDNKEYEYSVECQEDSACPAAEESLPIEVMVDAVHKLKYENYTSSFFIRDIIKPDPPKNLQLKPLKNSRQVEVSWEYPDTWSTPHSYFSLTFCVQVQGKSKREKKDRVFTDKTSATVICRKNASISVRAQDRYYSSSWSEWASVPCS
# T4: cynomolgus monkey IL-12 (cynomolgus monkey, UniProt A0A2K5V4L8 57-253; G7P6S2 23-328)
# T4 sequence (p35): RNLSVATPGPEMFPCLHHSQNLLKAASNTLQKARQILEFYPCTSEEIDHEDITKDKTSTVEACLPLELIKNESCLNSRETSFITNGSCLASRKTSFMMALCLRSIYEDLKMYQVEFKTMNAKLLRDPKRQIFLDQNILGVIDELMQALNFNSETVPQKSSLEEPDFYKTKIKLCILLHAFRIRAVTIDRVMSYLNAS
# T4 sequence (p40): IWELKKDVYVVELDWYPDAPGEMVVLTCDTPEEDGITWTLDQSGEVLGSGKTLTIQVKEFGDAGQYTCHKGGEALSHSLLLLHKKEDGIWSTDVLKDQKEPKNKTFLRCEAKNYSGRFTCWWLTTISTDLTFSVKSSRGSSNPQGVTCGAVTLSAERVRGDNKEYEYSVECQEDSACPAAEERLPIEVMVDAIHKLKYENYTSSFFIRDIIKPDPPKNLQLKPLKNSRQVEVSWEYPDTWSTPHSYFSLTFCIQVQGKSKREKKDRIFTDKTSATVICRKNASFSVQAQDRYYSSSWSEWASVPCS
# T5: human IL-23 (human, UniProt Q9NPF7 20-189; P29460 23-328)
# T5 sequence (looked up) 1: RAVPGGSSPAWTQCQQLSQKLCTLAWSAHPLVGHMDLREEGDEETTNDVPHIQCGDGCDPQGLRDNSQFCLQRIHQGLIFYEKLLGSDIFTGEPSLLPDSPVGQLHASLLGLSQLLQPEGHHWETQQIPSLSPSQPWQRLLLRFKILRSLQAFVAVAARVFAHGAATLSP
# T5 sequence (looked up) 2: T3 sequence (looked up) 2
# T6: human IL-4 (human, UniProt P05112 25-153)
# T6 sequence (looked up): T1 sequence (looked up) with K26E, I29V, L33F
# T7: recombinant human IL-33 (wild type, Ser112-Thr270) (human, UniProt O95760 112-270)
# T7 sequence (looked up): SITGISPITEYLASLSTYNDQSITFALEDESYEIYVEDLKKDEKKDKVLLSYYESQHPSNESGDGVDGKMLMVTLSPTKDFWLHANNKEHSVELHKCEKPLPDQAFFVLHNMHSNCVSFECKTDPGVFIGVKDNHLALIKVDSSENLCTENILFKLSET
# T8: human IL-12 (p35 + p40) (human, UniProt P29459 23-219; P29460 23-328)
# T8 sequence (looked up) 1: T3 sequence (looked up) 1
# T8 sequence (looked up) 2: T3 sequence (looked up) 2
# B1: IL413P40-0705 (trispecific antibody)
# heavy: EVQLVQSGAEVKKPGESLKISCKGSGYSFTTYWLGWVRQMPGKGLDWIGIMSPVDSDIRYSPSFQGQVTMSVDKSITTAYLQWNSLKASDTAMYYCARRRPGQGYFDFWGQGTLVTVSSASTKGPSVFPLAPSSKSTSGGTAALGCLVKDYFPEPVTVSWNSGALTSGVHTFPAVLQSSGLYSLSSVVTVPSSSLGTQTYICNVNHKPSNTKVDKKVEPKSCRKTHTCPPCPAPEAAGAPSVFLFPPKPKDTLMISRTPEVTCVVVDVSHEDPEVKFNWYVDGVEVHNAKTKPREEQYNSTYRVVSVLTVLHQDWLNGKEYKCKVSNKALPAPIEKTISKAKGQPREPQVYTLPPSREEMTKNQVSLTCLVKGFYPSDIAVEWESNGQPENNYKTTPPVLDSDGSFFLYSRLTVDKSRWQQGNVFSCSVLHEALHSHYTQKSLSLSPGK
# chain 1: DIQMTQSPSSLSASVGDRVTITCKASESVDHFGWSLVHWYQQKPGKAPKLLIYRASNLESGVPSRFSGSGSGTDFTLTISSLQPEDFATYYCQQSNEDPWTFGGGTKVEIKRTVAAPSVFIFPPSDEQLKSGTASVVCLLNNFYPREAKVQWKVDNALQSGNSQESVTEQDSKDSTYSLSSTLTLSKADYEKHKVYACEVTHQGLSSPVTKSFNRGECGGGGSEVTLRESGPALVKPTQTLTLTCTFSGFSLSNFGEGLSWIRQPPGKGLEWLAHIYWDDDKRYNPSLKSRLTISKDTSRNQVVLTMTNMDPVDTATYYCARRETVFYWYFDVWGQGTTVTVSSASTKGPSVFPLAPSSKSTSGGTAALGCLVKDYFPEPVTVSWNSGALTSGVHTFPAVLQSSGLYSLSSVVTVPSSSLGTQTYICNVNHKPSNTKVDKKVEPKSCEKTHTCPPCPAPEAAGAPSVFLFPPKPKDTLMISRTPEVTCVVVDVSHEDPEVKFNWYVDGVEVHNAKTKPREEQYNSTYRVVSVLTVLHQDWLNGKEYKCKVSNKALPAPIEKTISKAKGQPREPQVYTLPPSREEMTKNQVSLTCEVKGFYPSDIAVEWESNGQPENNYKTTPPVLDSDGSFFLYSKLTVDKSRWQQGNVFSCSVLHEALHSHYTQKSLSLSPGK
# light 1: not shown
# light 2: DIQMTQSPSSLSASVGDRVTITCRASQSVDEEGDSYMNWYQQKPGKAPKLLIYAASNLESGVPSRFSGSGSGTDFTLTISSLQPEDFATYYCQQSNKDPPTFGGGTKVEIKRTVAAPSVFIFPPSDEQLKSGTASVVCLLNNFYPREAKVQWKVDNALQSGNSQESVTEQDSKDSTYSLSSTLTLSKADYEKHKVYACEVTHQGLSSPVTKSFNRGEC
# chain 2: EVQLVESGGGLVQPGGSLRLSCAASGFTFSSYAMSWVRQAPGKGLEWVASISSGDTTYYPDSVKGRFTISRDNAKNSLYLQMNSLRAEDTAVYYCARNEGYYFGLTLWGQGTLVTVSSASTKGPSVFPLAPSSKSTSGGTAALGCLVKDYFPEPVTVSWNSGALTSGVHTFPAVLQSSGLYSLSSVVTVPSSSLGTQTYICNVNHKPSNTKVDKKVEPKSC
# notes: EE/RR, LS; also called IL134P40-0705; Tri-Fab-Fc IL413p40-0705
# B2: IL13433-1042 (other)
# heavy: EVQLVESGGGLVQPGGSLRLSCAASGFTFSSYWMYWVRQAPGKGLEWVAAITPNAGEDYYPESVKGRFTISRDNAKNSLYLQMNSLRAEDTAVYYCARGQYYYTKYSLGYWGQGTLVTVSSASTKGPSVFPLAPSSKSTSGGTAALGCLVKDYFPEPVTVSWNSGALTSGVHTFPAVLQSSGLYSLSSVVTVPSSSLGTQTYICNVNHKPSNTKVDKKVEPKSCRKTHTCPRCPAPEAAGAPSVFLFPPKPKDTLMISRTPEVTCVVVDVSHEDPEVKFNWYVDGVEVHNAKTKPREEQYNSTYRVVSVLTVLHQDWLNGKEYKCKVSNKALPAPIEKTISKAKGQPREPQVYTLPPSREEMTKNQVSLTCLVKGFYPSDIAVEWESNGQPENNYKTTPPVLDSDGSFFLYSRLTVDKSRWQQGNVFSCSVLHEALHSHYTQKSLSLSPGK
# chain 1: B1 chain 1 with P455E
# light 1: DIQMTQSPSSLSASVGDRVTITCRASQPIHNHLDWYQQKPGKAPKLLIYFGKNLQEGVPSRFSGSGSGTDFTLTISSLQPEDFATYYCFQYKKGWSFGGGTKVEIKRTVAAPSVFIFPPSDEQLKSGTASVVCLLNNFYPREAKVQWKVDNALQSGNSQESVTEQDSKDSTYSLSSTLTLSKADYEKHKVYACEVTHQGLSSPVTKSFNRGEC
# light 2: B1 light 2 with K97E
# chain 2: B1 chain 2
# B3: p40-0003 (antibody, human IgG1, kappa, V domains shown)
# VH: EVQLVQSGAEVKKPGESLKISCKGSGYSFTTYWLGWVRQMPGKGLDWIGIMSPVDSDIRYSPSFQGQVTMSVDKSITTAYLQWNSLKASDTAMYYCARRRPGQGYFDFWGQGTLVTVSS
# VL: DIQMTQSPSSLSASVGDRVTITCRASQGISSWLAWYQQKPEKAPKSLIYAASSLQSGVPSRFSGSGSGTDFTLTISSLQPEDFATYYCQQYNIYPYTFGQGTKLEIKR
# Tests used:
# cynomolgus monkey IL-4 = biological target: T1, cynomolgus monkey IL-4; assay: KinExA, fixed antigen
# Description: Samples were prepared in PBS containing 0.1% sodium azide and 1.0 mg/ml BSA. The fixed antigen assay method was used to determine binding affinity. […] Each trispecific and IL-4 cytokine were equilibrated for at least 72 hours at room temperature, then passed through a flow cell containing Polymethylmethacrylate (PMMA) beads coated with anti-hIL-4 Ab-0002 (Pfizer) that contains the same IL-4 binding domain as the trispecifics. […] Data analysis was performed with KinExA Pro software version 4.3.11 (Sapidyne). […] The ‘drift correction’ fitting option was used when responses varied between replicate injections. Two curves were obtained in independent experiments and analyzed using the ‘n-curve analysis’ tool to obtain global best fit values for the KD and active concentration of IL-4 cytokine. The software reports each best fit value along with a 95% confidence interval.
# Samples were prepared in PBS containing 0.1% sodium azide and 1.0 mg/ml BSA. A fixed antigen assay method was used to determine binding affinity.
# human IL-4 [1] = biological target: T2, human IL-4; assay: cell-based or functional assay
# human IL-12 = biological target: T3, human IL-12; assay: cell-based or functional assay
# cynomolgus monkey IL-12 = biological target: T4, cynomolgus monkey IL-12; assay: cell-based or functional assay
# human IL-23 = biological target: T5, human IL-23; assay: cell-based or functional assay
# human IL-13 [2] = biological target: human IL-13 (human, UniProt P35225 35-146); assay: cell-based or functional assay
# Target sequence in this assay (P35225 35-146 limits assumed, form in doubt): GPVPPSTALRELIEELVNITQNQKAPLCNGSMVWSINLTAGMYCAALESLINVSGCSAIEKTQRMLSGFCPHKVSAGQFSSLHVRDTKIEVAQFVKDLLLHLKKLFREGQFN
# cynomolgus monkey IL-13 = cynomolgus monkey IL-13 (cynomolgus monkey, UniProt Q0PW92 19-132); assay: cell-based or functional assay
# Chain of cynomolgus monkey IL-13 (Q0PW92 entry or part of it limits assumed): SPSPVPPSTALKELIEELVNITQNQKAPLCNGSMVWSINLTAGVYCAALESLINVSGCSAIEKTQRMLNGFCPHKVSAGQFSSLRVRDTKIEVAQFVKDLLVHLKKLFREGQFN
# cynomolgus monkey IL-23 = cynomolgus monkey IL-23 (cynomolgus monkey, UniProt H6WS56 20-189); assay: cell-based or functional assay
# human IL-4 [3] = biological target: T6, human IL-4; assay: cell-based or functional assay; remark: listed apart in the source
# human IL-13 [4] = biological target: human IL-13 (human, UniProt P35225 35-146); assay: cell-based or functional assay; remark: listed apart in the source
# Target sequence in this assay (P35225 35-146 limits assumed): as the sequence (P35225 35-146 limits assumed, form in doubt) above
# [5] = biological target: T7, recombinant human IL-33 (wild type, …); assay: cell-based or functional assay
# human IL-12 (p35 + p40) = biological target: T8, human IL-12 (p35 + p40); assay: cell-based or functional assay
binder,measurement,setting,value
B1,fold of the human IL-4 affinity value,cynomolgus monkey IL-4,≤ 1.2 fold
same,fold IL-4 neutralization activity over dupilumab (monocyte CD23 bioassay),human IL-4 [1],~10 fold
same,fold lower potency than mAb IL4-1040 (monocyte CD23 bioassay),human IL-4 [1],~3.2 fold
same,"fold less potent than p40-0003, Kit-225 pSTAT4 assay",human IL-12,2.9 fold
same,"fold less potent than p40-0003, whole blood pSTAT4 assay",human IL-12,1.5 fold
same,"fold difference in potency between human and cynomolgus monkey IL-12, Kit-225 assay",cynomolgus monkey IL-12,< 2 fold
same,"fold less potent than p40-0003, Kit-225 pSTAT3 assay",human IL-23,2.6 fold
same,"fold less potent than p40-0003, whole blood pSTAT3 assay",human IL-23,2.4 fold
same,fold IL-13 neutralization activity over dupilumab (monocyte CD23 bioassay),human IL-13 [2],8.9 fold
same,fold lower potency than IL13-0001 (monocyte CD23 bioassay),human IL-13 [2],~2.4 fold
same,fold reduced neutralization compared to the human cytokine (monocyte CD23 bioassay),cynomolgus monkey IL-13,~4 fold
same,"fold difference in potency between human and cynomolgus monkey IL-23, Kit-225 assay",cynomolgus monkey IL-23,< 2 fold
B2,a-hIL-4 IC50 [pM],human IL-4 [3],7.1 pM
same,a-hIL-13 IC50 [pM],human IL-13 [4],12.4 pM
same,a-IL-33 bioassay (WT) IC50 [pM],[5],28 pM
B3,anti-IL12 bioassay IC50,human IL-12 (p35 + p40),0.286 nM

# — patent US20240117030A1 (Pfizer, published 2024)
